Positions count from the first letter of the chain named. In names and notes the source's numbering stands. Each block holds one molecule with its values, some of them ahead of it.
How the values were obtained:
[1] = molecular target: human κ-chain (human); test: affinity chromatography, Y53F PpL coupled to agarose, human κ-chain eluted by rising KCl
[2] = molecular target: human IgG (human); test: competitive ELISA at pH 8.0, against the Kd of PpL (112 nM)
[3] = molecular target: human IgG (human); test: method not given
[4] = molecular target: human κ-chain (human); test: method not given
[5] = molecular target: human κ-chain (human); test: affinity chromatography, Y53F PpL coupled to agarose, human κ-chain eluted by falling pH
[6] = molecular target: human κ-chain (human); test: Kd at pH 8, method not stated; one Kd given for the mutation, ticked in PpL and Y64W PpL
[7] = molecular target: human κ-chain (human); test: affinity chromatography, Y53F PpL coupled to agarose, human κ-chain eluted by rising pH
[8] = molecular target: human IgG (human); test: competitive ELISA at pH 8.0, PpL on the plate
[9] = molecular target: human κ-chain (human); test: affinity chromatography, Y64W PpL coupled to agarose, human κ-chain eluted by rising pH
[10] = molecular target: human κ-chain (human); test: tryptophan fluorescence, complex against the sum of the spectra of the single proteins
[11] = molecular target: human κ-chain (human); test: affinity chromatography, Y64W PpL coupled to agarose, human κ-chain eluted by rising KCl
[12] = molecular target: human κ-chain (human); test: affinity chromatography, Y64W PpL coupled to agarose, human κ-chain eluted by falling pH
[13] = molecular target: human IgG (human); test: competitive ELISA, PpL on the plate, human IgG
[14] = molecular target: human κ-chain (human); test: Kd at pH 8, method not stated; one Kd given for the mutation, ticked in Y64W PpL and F39W PpL
[15] = molecular target: human κ-chain (human); test: tryptophan fluorescence, complex against the sum of the single proteins
[16] = molecular target: human κ-chain (human); test: Kd at pH 8, method not stated; mutation ticked in Y64W PpL
[17] = molecular target: human κ-chain (human); test: Kd at pH 8, method not stated; mutation ticked in F39W PpL
[18] = molecular target: human κ-chain (human); test: affinity chromatography, PpL coupled to agarose, human κ-chain eluted by falling pH
[19] = molecular target: human IgG (human); test: competitive ELISA; told as 'previously determined for PpL'
[20] = molecular target: human κ-chain (human); test: affinity chromatography, PpL coupled to agarose, human κ-chain eluted by rising KCl
[21] = molecular target: human κ-chain (human); test: affinity chromatography, PpL coupled to agarose, human κ-chain eluted by rising pH
[22] = molecular target: human IgG (human); test: competitive ELISA, human IgG
[23] = molecular target: human κ-chain (human); test: isothermal titration calorimetry, 800 µM L57H PpL into 40 µM kappa light chain, 25 °C, pH 8.0
[24] = molecular target: human IgG (human); test: competitive ELISA, Wt PpL immobilized, human IgG
[25] = molecular target: human κ-chain (human); test: stopped flow fluorescence, equilibrium Kd
[26] = molecular target: human κ-chain (human); test: stopped flow fluorescence, encounter complex
[27] = molecular target: human κ-chain (human); test: stopped flow fluorescence
[28] = molecular target: human κ-chain (human); test: Kd at pH 8, method not stated; mutation ticked in PpL
[29] = molecular target: human κ-chain (human); test: fluorescence titration of F39W into 0.75 µM kappa chain, 18 °C, pH 8
[30] = molecular target: human κ-chain (human); test: competitive fluorescence titration, PpL2Asn as competitor

- elution condition, increase KCl [1]: 0.75 M
- fold increase in Kd against PpL [2]: 25 fold
- Kd [3]: 2000 nM
- fold reduction in affinity against PpL [4]: 27 fold
- elution condition, decreased pH [5]: 3.2 pH
- Kd [6]: 1700 nM
- elution condition, increased pH [7]: 9.6 pH
- Kd [8]: 3200 nM
Molecule: Y53F PpL

- Kd [6]: 1700 nM
- Kd [8]: 3320 nM
- increase in fluorescence signal of the complex [15]: 10%
B3: Y53F Y64W PpL (protein)
chain: MNIKFAGKETPETPEEPKEEVTIKVNLIFADGKIQTAEFKGTFEEATAEAYRFADLLAKVNGEWTADLEDGGNHMNIKFAGK

- Kd [6]: 1000 nM
B7: F39H Y64W PpL (protein)
chain: B3 chain with F39H, F53Y

- elution condition, decreased pH [18]: 1.96 pH
- Kd [19]: 112 nM
- elution condition, increase KCl [20]: 0.95 M
- elution condition, increased pH [21]: 10.2 pH
- Kd [22]: 160 nM
B9: PpL (protein)
chain: B3 chain with F53Y, W64Y

- Kd [14]: 300 nM
B10: Q35E Y64W PpL (protein)
chain: B3 chain with Q35E, F53Y

The remaining lines, values behind:

B1: Y64W PpL (protein)
chain: B3 chain with F53Y
- elution condition, increased pH [9]: 10.1 pH
- quench in fluorescence emission of the complex [10]: 9%
- elution condition, increase KCl [11]: 0.96 M
- elution condition, decreased pH [12]: 2.03 pH
- Kd [13]: 129 nM

B2: Q35E F39W PpL (protein)
chain: B3 chain with Q35E, F39W, F53Y, W64Y
- Kd [14]: 300 nM

B4: L57D Y64W PpL (protein)
chain: B3 chain with F53Y, L57D
- Kd [16]: 2000 nM

B5: F39H PpL (protein)
chain: B3 chain with F39H, F53Y, W64Y
- Kd [6]: 1000 nM

B6: Y53H F39W PpL (protein)
chain: B3 chain with F39W, F53H, W64Y
- Kd [17]: 500 nM

B8: N76D F39W PpL (protein)
chain: B3 chain with F39W, F53Y, W64Y, N76D
- Kd [17]: 400 nM

B11: L57H PpL (protein)
chain: B3 chain with F53Y, L57H, W64Y
- Kd [23]: 5200 nM
- Kd [24]: 4200 nM
- Kd [6]: 6000 nM

B12: L57H Y64W PpL (protein)
chain: B3 chain with F53Y, L57H
- Kd [6]: 6000 nM
- Kd [25]: 5400 nM
- pre-equilibrium Kd [26]: 6800 nM
- fold of equilibrium Kd against Y64W PpL [27]: 30 fold
- fold of pre-equilibrium Kd against Y64W PpL [27]: 2 fold

B13: F39W PpL (protein)
chain: B3 chain with F39W, F53Y, W64Y
- Kd [28]: 160 nM
- Kd [29]: 161 nM
- Kdapp in the presence of 5 µM PpL2Asn [30]: 310 nM

From US20020137918A1
